Biological target: T1, SDF1α (Homo sapiens, UniProt P61073, F172Y/F264Y/F293Y/F304Y/F36Y/F49Y/F93Y/I162T/I169T/I173T/I243T/I257T/I286T/I300T/I39T/I53T/I89T/L165Q/L246Q/L253Q/L290Q/L297T/L301Q/L50Q/L86Q/V242T/V82T/V96T/V99T)
T1 construct: HUMAN CXCR4 QTY; made in house; host or cells: cell-free production
Assay: Surface Plasmon Resonance analysis of CXCR4 QTY (Biacore, receptor captured on 1D4 Ab, SDF1α injected)
Format: binding
Conditions: SPR, Biacore 2000, CM5 chip; SDF1α 0-1 μM; HBST with 0.2% BSA and 0.2% Fos-Choline-14
Protocol: Human CXCR4 and our CXCR4 QTY proteins obtained from cell-free production and purified with affinity beads were captured in different flow cells on a Biacore CM5 chip with immobilized 1D4 Antibody (Ab) in a Biacore 2000 instrument. Different concentrations of SDF1α, the native ligand for hCXCR4 receptor, were injected over the surface to allow interaction with the receptors.
Biacore CM5 chips were activated with 1-Ethyl-3-[3-dimethylaminopropyl]carbodiimide hydrochloride and N-hydroxysuccinimide according to the manufacturer's protocol prior to a 7 minute injection at 5 μl/min of 1D4 Ab to flow cells 2-4 at 70 μg/ml followed by deactivating of the surfaces in all the 4 flow cells with a short Ethanolamine pulse. The immobilization level of 1D4 Ab range from 8000-25000 Response units (RU).
CXCR4 and CXCR4 QTY mutant are captured by the 1D4 Ab on the CM5 chip by injecting a 0.1 mg/m1 sample of the protein to a single flow cell at 5 μl/min during 15 min with both sample and running buffer containing 0.2% Fos-Choline-14 detergent. The receptors were captured to a level of 800-3000 RU.
SDF1α were injected over all flow cells to allow interaction with both the receptors and flow cell one is used as a reference cell without any immobilized protein. […]

B1: CXCR4 QTY: Water-soluble human CXCR4 variant with 29 QTY mutations in the seven transmembrane helices (SEQ ID NO: 10) (protein)
chain: MEGISIYTSDNYTEEMGSGDYDSMKEPCFREENANYNKTFLPTIYSIIYQTGTVGNGLVILVMGYQKKLRSMTDKYRLHLSTADLQFVTTLPYWATDATANWYFGNFLCKAVHVIYTVNLYSSVLILAFISLDRYLAIVHATNSQRPRKLLAEKVVYVGVWTPAQLLTTPDYTFANVSEADDRYICDRFYPNDLWVVVFQFQHIMVGLILPGIVILSCYCIIISKLSHSKGHQKRKALKTTTTLIQAFFACWQPYYTGISIDSYILLEIIKQGCEFENTVHKWISTTEAQAFYHCCTNPTQYAYLGAKFKTSAQHALTSVSRGSSLKILSKGKRGGHSSVSTESESSSSFHS
ligand binding (SDF1α): shows ligand binding
